Measured values taken from publication doi:10.1101/589580 (bioRxiv, 2019).
No end group written: not given here.

How the values were obtained:
[1] = biological target: full-length ZO1 with C-terminal mEGFP (UniProt Q07157 1-1748); test: client partitioning into phase-separated droplets
[2] = biological target: the molecule itself; test: FCS molecular brightness

Sequence of full-length ZO1 with C-terminal mEGFP (Q07157 whole entry): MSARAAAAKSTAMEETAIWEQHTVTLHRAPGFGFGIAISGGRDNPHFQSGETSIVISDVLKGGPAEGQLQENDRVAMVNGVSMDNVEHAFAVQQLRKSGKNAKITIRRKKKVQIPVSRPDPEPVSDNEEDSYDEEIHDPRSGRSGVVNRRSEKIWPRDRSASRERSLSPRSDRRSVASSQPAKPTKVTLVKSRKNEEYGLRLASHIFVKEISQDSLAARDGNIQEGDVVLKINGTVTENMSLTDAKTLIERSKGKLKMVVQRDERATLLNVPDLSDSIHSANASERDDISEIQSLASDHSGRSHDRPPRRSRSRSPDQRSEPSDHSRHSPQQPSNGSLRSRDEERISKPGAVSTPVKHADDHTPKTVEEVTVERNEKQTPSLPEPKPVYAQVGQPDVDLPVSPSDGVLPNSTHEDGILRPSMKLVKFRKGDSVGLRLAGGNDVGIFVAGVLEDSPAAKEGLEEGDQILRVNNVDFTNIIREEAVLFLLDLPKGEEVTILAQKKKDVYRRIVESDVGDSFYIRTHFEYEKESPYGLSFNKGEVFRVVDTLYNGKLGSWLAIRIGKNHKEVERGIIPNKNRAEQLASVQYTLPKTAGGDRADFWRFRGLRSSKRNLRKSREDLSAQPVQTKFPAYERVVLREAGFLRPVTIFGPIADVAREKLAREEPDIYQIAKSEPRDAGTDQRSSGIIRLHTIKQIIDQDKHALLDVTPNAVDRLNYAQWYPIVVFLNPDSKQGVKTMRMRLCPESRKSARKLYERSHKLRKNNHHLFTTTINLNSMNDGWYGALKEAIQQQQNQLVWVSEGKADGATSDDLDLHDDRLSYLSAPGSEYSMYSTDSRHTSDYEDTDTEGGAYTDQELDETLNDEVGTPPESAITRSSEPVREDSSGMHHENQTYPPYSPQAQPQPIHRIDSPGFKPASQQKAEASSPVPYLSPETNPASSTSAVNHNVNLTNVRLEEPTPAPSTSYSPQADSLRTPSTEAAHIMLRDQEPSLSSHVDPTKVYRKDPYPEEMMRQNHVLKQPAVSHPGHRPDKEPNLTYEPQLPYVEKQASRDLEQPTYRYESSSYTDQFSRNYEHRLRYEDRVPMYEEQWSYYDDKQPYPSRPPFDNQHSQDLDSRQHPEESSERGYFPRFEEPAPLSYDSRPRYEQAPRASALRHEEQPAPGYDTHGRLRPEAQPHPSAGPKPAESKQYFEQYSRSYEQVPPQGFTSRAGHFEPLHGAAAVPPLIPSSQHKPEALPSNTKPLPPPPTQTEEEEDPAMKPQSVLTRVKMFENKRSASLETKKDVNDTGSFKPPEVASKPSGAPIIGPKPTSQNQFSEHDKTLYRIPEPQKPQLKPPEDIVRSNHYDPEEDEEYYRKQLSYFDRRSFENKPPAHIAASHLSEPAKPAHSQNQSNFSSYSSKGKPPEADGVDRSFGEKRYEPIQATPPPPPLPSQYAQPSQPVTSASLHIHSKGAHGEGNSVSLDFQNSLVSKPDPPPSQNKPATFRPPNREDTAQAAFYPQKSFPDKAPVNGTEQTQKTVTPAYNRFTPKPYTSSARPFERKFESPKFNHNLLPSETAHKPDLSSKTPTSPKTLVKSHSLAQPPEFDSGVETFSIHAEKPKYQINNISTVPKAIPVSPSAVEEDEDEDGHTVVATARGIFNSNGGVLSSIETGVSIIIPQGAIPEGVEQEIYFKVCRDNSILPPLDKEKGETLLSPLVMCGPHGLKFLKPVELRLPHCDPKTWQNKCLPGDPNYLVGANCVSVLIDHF

Binder | partitioning (client fluorescence inside/outside ZO1 droplets) [1] [fold] | stoichiometry N [2]
cingulin (natural protein, UniProt Q9P2M7 1-1203, looked up) MEQAPNMAEPRGPVDHGVQIRFITEPVSGAEMGTLRRGGRRPAKDARASTYGVAVRVQGIAGQPFVVLNSGEKGGDSFGVQIKGANDQGASGALSSDLELPENPYSQVKGFPAPSQSSTSDEEPGAYWNGKLLRSHSQASLAGPGPVDPSNRSNSMLELAPKVASPGSTIDTAPLSSVDSLINKFDSQLGGQARGRTGRRTRMLPPEQRKRSKSLDSRLPRDTFEERERQSTNHWTSSTKYDNHVGTSKQPAQSQNLSPLSGFSRSRQTQDWVLQSFEEPRRSAQDPTMLQFKSTPDLLRDQQEAAPPGSVDHMKATIYGILREGSSESETSVRRKVSLVLEKMQPLVMVSSGSTKAVAGQGELTRKVEELQRKLDEEVKKRQKLEPSQVGLERQLEEKTEECSRLQELLERRKGEAQQSNKELQNMKRLLDQGEDLRHGLETQVMELQNKLKHVQGPEPAKEVLLKDLLETRELLEEVLEGKQRVEEQLRLRERELTALKGALKEEVASRDQEVEHVRQQYQRDTEQLRRSMQDATQDHAVLEAERQKMSALVRGLQRELEETSEETGHWQSMFQKNKEDLRATKQELLQLRMEKEEMEEELGEKIEVLQRELEQARASAGDTRQVEVLKKELLRTQEELKELQAERQSQEVAGRHRDRELEKQLAVLRVEADRGRELEEQNLQLQKTLQQLRQDCEEASKAKMVAEAEATVLGQRRAAVETTLRETQEENDEFRRRILGLEQQLKETRGLVDGGEAVEARLRDKLQRLEAEKQQLEEALNASQEEEGSLAAAKRALEARLEEAQRGLARLGQEQQTLNRALEEEGKQREVLRRGKAELEEQKRLLDRTVDRLNKELEKIGEDSKQALQQLQAQLEDYKEKARREVADAQRQAKDWASEAEKTSGGLSRLQDEIQRLRQALQASQAERDTARLDKELLAQRLQGLEQEAENKKRSQDDRARQLKGLEEKVSRLETELDEEKNTVELLTDRVNRGRDQVDQLRTELMQERSARQDLECDKISLERQNKDLKTRLASSEGFQKPSASLSQLESQNQLLQERLQAEEREKTVLQSTNRKLERKVKELSIQIEDERQHVNDQKDQLSLRVKALKRQVDEAEEEIERLDGLRKKAQREVEEQHEVNEQLQARIKSLEKDSWRKASRSAAESALKNEGLSSDEEFDSVYDPSSIASLLTESNLQTSSC | 25 | –
transcription factor ZONAB (natural protein) not shown | 20 | –
afadin (natural protein, UniProt P55196 1-1824, looked up) MSAGGRDEERRKLADIIHHWNANRLDLFEISQPTEDLEFHGVMRFYFQDKAAGNFATKCIRVSSTATTQDVIETLAEKFRPDMRMLSSPKYSLYEVHVSGERRLDIDEKPLVVQLNWNKDDREGRFVLKNENDAIPPKKAQSNGPEKQEKEGVIQNFKRTLSKKEKKEKKKREKEALRQASDKDDRPFQGEDVENSRLAAEVYKDMPETSFTRTISNPEVVMKRRRQQKLEKRMQEFRSSDGRPDSGGTLRIYADSLKPNIPYKTILLSTTDPADFAVAEALEKYGLEKENPKDYCIARVMLPPGAQHSDEKGAKEIILDDDECPLQIFREWPSDKGILVFQLKRRPPDHIPKKTKKHLEGKTPKGKERADGSGYGSTLPPEKLPYLVELSPGRRNHFAYYNYHTYEDGSDSRDKPKLYRLQLSVTEVGTEKLDDNSIQLFGPGIQPHHCDLTNMDGVVTVTPRSMDAETYVEGQRISETTMLQSGMKVQFGASHVFKFVDPSQDHALAKRSVDGGLMVKGPRHKPGIVQETTFDLGGDIHSGTALPTSKSTTRLDSDRVSSASSTAERGMVKPMIRVEQQPDYRRQESRTQDASGPELILPASIEFRESSEDSFLSAIINYTNSSTVHFKLSPTYVLYMACRYVLSNQYRPDISPTERTHKVIAVVNKMVSMMEGVIQKQKNIAGALAFWMANASELLNFIKQDRDLSRITLDAQDVLAHLVQMAFKYLVHCLQSELNNYMPAFLDDPEENSLQRPKIDDVLHTLTGAMSLLRRCRVNAALTIQLFSQLFHFINMWLFNRLVTDPDSGLCSHYWGAIIRQQLGHIEAWAEKQGLELAADCHLSRIVQATTLLTMDKYAPDDIPNINSTCFKLNSLQLQALLQNYHCAPDEPFIPTDLIENVVTVAENTADELARSDGREVQLEEDPDLQLPFLLPEDGYSCDVVRNIPNGLQEFLDPLCQRGFCRLIPHTRSPGTWTIYFEGADYESHLLRENTELAQPLRKEPEIITVTLKKQNGMGLSIVAAKGAGQDKLGIYVKSVVKGGAADVDGRLAAGDQLLSVDGRSLVGLSQERAAELMTRTSSVVTLEVAKQGAIYHGLATLLNQPSPMMQRISDRRGSGKPRPKSEGFELYNNSTQNGSPESPQLPWAEYSEPKKLPGDDRLMKNRADHRSSPNVANQPPSPGGKSAYASGTTAKITSVSTGNLCTEEQTPPPRPEAYPIPTQTYTREYFTFPASKSQDRMAPPQNQWPNYEEKPHMHTDSNHSSIAIQRVTRSQEELREDKAYQLERHRIEAAMDRKSDSDMWINQSSSLDSSTSSQEHLNHSSKSVTPASTLTKSGPGRWKTPAAIPATPVAVSQPIRTDLPPPPPPPPVHYAGDFDGMSMDLPLPPPPSANQIGLPSAQVAAAERRKREEHQRWYEKEKARLEEERERKRREQERKLGQMRTQSLNPAPFSPLTAQQMKPEKPSTLQRPQETVIRELQPQQQPRTIERRDLQYITVSKEELSSGDSLSPDPWKRDAKEKLEKQQQMHIVDMLSKEIQELQSKPDRSAEESDRLRKLMLEWQFQKRLQESKQKDEDDEEEEDDDVDTMLIMQRLEAERRARLQDEERRRQQQLEEMRKREAEDRARQEEERRRQEEERTKRDAEEKRRQEEGYYSRLEAERRRQHDEAARRLLEPEAPGLCRPPLPRDYEPPSPSPAPGAPPPPPQRNASYLKTQVLSPDSLFTAKFVAYNEEEEEEDCSLAGPNSYPGSTGAAVGAHDACRDAKEKRSKSQDADSPGSSGAPENLTFKERQRLFSQGQDVSNKVKASRKLTELENELNTK | 28 | –
SCPRKTTSYPTPRPYPKPAPSSGKDYV (also: CoA-DY647 on YBBR-tag, labelled with PPTase Sfp, tag not in given chain) [C-terminal tail of claudin-1] | 44 | –
endogenous ZO2 with N-terminal mNeonGreen (CRISPR knock-in, MDCK-II) (natural protein, dog (endogenous in MDCK-II), UniProt Q95168 1-1174, looked up) MEELIWEQYTVTLQKDSKRGFGIAVSGGRDNPHFENGETSIVISDVLPGGPADGLLQENDRVVMVNGTPMEDVLHSFAVQQLRKSGKIAAIVVKRPRKVQLAPPQGSLPVDEDDRAFEVMDEFDGRSARSGYSERSRRSSHGGRSRSWEDSPERGRPHERAWSQERERSRGRSLERGLDHDDDYRRPRERSRGRSLERGLDHDDDYGRPGERSHGMSTDRGYDRGYDRGYDRGYDRTYSPEAEYGRRTQPDARHAGSRSRSREHLRSRSPSPELRGRPDHAGQPDSDRPIGVLLMKSKANEEYGLRLGSQIFIKQMTRTALATKDGNLHEGDIILKINGTVTENMSLTDARKLIEKSRGKLQLVVLRDSKQTLINIPSLNDSDSEIEDISEIESNRSFSPEERRQQYSDYDYHSSNEKLKERPNSREDMQNRWSRMGATPTPFKSMGDIASVVGTENSKEPRYQEEPPAPQPKAAPRTFLRPSPEDEAIYGPNTKMVRFKKGDSVGLRLAGGNDVGIFVAGIQEGTSAEQEGLQEGDQILKVNTQDFRGLVREDAVLYLLEIPKGEMVTILAQSRADVYRDILACGRGDSFFIRSHFECEKETPQSLAFSRGEVFRVVDTLYDGKLGHWLAVRIGNELEKGLIPNKSRAEQMASVQNAQRDNAGDRADFWRMRGQRSGMKKNLRKSREDLTAAVSVSTKFPAYERVLLREAGFKRPVVLFGPIADIALEKLANELPDLFQTAKTEPKDAGSEKSSGVVRLNTVRQIIEQDKHALLDVTPKAVDLLNYTQWFPIVIFFNPDSRQGVKTMRQRLNPTSNKSSRKLYDQANKLKKTCAHLFTATINLNSANDSWFGSLKDTIQHQQGEAVWVSEGKMEGMDDDPEDRMSYLTAMGADYLSCDSRLISDFEDTDGEGGAYTDNELDEPAEEPLVSSITRSSEPVQHEESIRKPSPEPRAQMRRAASRDQLRDSSPPPAFKPEPPKAKTQNREESFDISRSHDYKSNPSAVAGNEVSGASTRSCPPPIAAKPSFGRSILKPSTPVPSPESEEVGEGSEEQEGAPKSVLGKVKIFEKMDHKARLQRMQELQEAQNARIEIAQKHPDIYAVPIKTHKPDPGLSQHTSSRPPEPQKGPSRLYQDPRGSYGSDAEEEEYRQQLSEHSKRGYYSQPSRYRDTEL | – | 1.5
